According to US20210122826A1 (MIT, published 2021):
Numbering of substitutions follows the chain as printed.

T1: Human Clec7A (human, UniProt Q9BXN2 1-247)
T1 construct: also called hClec7A
T1 sequence: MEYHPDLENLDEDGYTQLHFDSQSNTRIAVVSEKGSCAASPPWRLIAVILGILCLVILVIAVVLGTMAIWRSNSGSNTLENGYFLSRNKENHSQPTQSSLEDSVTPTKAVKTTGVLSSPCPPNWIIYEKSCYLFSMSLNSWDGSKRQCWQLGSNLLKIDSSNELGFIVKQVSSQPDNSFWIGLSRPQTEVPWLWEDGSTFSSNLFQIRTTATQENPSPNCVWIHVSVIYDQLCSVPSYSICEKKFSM

T2: Human KLRF1 (human, UniProt Q9NZS2 1-231)
T2 construct: also called hKLRF1
T2 sequence: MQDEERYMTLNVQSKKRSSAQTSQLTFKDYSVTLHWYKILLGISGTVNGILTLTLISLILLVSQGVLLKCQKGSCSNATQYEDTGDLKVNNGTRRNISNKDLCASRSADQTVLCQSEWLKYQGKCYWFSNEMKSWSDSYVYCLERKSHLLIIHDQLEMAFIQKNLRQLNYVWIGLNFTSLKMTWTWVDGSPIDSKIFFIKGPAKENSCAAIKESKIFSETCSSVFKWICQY

T3: Human Clec5A (human, UniProt Q9NY25 1-188)
T3 construct: also called hClec5A
T3 sequence: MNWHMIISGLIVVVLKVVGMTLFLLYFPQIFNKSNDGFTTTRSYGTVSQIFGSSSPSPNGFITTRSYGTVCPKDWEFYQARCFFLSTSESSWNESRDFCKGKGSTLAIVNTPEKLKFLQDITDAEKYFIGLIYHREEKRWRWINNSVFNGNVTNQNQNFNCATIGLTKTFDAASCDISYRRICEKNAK

T4: Human CD209 (human, UniProt Q9NNX6 1-404)
T4 construct: also called hCD209
T4 sequence: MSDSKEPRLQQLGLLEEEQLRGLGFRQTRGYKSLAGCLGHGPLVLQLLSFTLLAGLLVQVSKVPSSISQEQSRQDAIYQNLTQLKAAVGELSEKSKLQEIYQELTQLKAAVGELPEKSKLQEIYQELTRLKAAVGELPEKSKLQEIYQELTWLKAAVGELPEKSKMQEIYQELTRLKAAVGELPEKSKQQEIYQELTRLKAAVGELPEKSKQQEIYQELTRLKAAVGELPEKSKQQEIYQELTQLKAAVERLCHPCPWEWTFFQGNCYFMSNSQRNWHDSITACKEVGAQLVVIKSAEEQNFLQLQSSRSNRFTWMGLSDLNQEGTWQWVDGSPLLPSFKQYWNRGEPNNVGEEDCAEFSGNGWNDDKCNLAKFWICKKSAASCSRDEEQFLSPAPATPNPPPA

T5: Human Clec12B (human, UniProt Q2HXU8 1-276)
T5 construct: also called hClec12B
T5 sequence: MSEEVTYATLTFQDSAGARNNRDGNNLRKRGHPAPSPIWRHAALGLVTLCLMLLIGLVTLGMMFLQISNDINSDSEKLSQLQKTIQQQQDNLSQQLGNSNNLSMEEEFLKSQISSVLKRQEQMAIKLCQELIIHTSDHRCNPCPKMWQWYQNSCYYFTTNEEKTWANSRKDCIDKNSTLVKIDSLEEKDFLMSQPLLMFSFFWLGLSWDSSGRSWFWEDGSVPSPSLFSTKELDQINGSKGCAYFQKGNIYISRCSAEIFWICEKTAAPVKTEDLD

T6: Human Clec10A (human, UniProt Q8IUN9 1-316)
T6 construct: also called hClec10A
T6 sequence: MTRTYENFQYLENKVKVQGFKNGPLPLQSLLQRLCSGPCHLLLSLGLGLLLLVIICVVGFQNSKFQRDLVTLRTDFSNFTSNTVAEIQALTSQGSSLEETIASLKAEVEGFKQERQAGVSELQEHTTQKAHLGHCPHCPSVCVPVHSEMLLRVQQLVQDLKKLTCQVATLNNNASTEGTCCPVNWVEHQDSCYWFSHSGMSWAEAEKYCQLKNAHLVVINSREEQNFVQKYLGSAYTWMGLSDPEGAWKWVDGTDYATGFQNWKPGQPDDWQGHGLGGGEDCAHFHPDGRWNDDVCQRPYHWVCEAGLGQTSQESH

T7: cynomolgus CD161 (cynomolgus)
T7 construct: UniProt A0A2K5WYI1; also called cynoCD161
T7 chain: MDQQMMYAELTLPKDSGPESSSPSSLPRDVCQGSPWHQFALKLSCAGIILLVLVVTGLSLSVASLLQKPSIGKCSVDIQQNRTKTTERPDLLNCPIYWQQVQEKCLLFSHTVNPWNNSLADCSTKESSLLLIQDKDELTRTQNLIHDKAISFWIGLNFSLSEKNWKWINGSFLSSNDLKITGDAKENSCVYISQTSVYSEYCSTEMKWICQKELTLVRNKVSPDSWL

T8: Human Clec4E (human, UniProt Q9ULY5 1-219)
T8 construct: also called hClec4E
T8 sequence: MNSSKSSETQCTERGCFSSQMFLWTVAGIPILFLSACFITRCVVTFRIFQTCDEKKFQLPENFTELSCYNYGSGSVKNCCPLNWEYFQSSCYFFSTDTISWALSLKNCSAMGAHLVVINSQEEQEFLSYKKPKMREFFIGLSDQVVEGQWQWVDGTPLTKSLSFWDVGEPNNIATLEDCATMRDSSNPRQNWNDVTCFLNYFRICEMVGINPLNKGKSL

B1: KW17.3.4 (antibody, V domains shown)
VH: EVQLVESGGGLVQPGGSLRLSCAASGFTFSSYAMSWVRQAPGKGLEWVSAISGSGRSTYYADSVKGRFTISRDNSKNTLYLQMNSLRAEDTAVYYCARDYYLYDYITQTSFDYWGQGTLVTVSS
VL: QSVLTQPPSVSGAPGQRVTISCTGSSSNIGAGYDVHWYQQLPGTAPKLLIYGNSNRPSGVPDRFSGSQSGTSASLAITGLQAEDEADYYCQSYNSGHTVFGGGTQLTVL
B2: KW1.2.1 (antibody, V domains shown)
VH: EVQLVESGGGLVQPGGSLRLSCAASGSTFSSYAMSWVRQAPGKGLEWVSTISGSGGSTYYADSVKGRFTISRDNSRNTLYLQMNSLRAEDTAVYYCARGGLIPSGFDYWGQGTLVTVSS
VL: DIQMTQSPSSPSASVGDRVTITCRASQSISSYLNWYQQKPGKAPKLLIYAASSLLSGVPSRFSGSGSGTDFTLTISSLQPEDFATYYCQQTYSTPLTFGQGTKVEIK
B3: KM12.2.3 (antibody, human IgG1, V domains shown)
VH: EVQLVESGGGLVQPGGSLRLSCAASGFTFSSYAMSWIRQAPGKGLEWVSAISGSGGSIYYADSVKGRFTISRDNSKNTLYLQMNSLRAEDTAVYYCARGYSDSYFYGPYYTFDYWGQGTLVTVSS
VL: B2 VL with P11L, S28G, L55Q, P59S, T91S, S93N
B4: KM12.4.7 (antibody, V domains shown)
VH: B3 VH with S21P, N84D
VL: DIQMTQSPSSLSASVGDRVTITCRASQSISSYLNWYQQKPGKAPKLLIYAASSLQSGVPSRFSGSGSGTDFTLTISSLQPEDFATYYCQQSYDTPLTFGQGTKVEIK
B5: KW7.2.2 (antibody, V domains shown)
VH: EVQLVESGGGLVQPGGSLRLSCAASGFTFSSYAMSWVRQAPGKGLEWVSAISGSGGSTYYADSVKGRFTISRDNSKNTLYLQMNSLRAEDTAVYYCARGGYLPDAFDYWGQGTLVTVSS
VL: B2 VL with P11L, K45R, L46F, L55Q
B6: KW9.3.3 (antibody, V domains shown)
VH: EVQLVESGGGLVQPGGSLRLSCAASGFTFSSYAMSWVRQAPGKGLEWVSAISGSGGRTYYADSVKGRFTISRDNSKNTLYLQMNSLRAEDTAMYYCARGPGYMYLYGDSFFEYWGQGTLVTVSS
VL: B2 VL with T5A, P11L, S28G, L55Q, S67Y, T91S
B7: KW1.3.12 (antibody, human IgG1, V domains shown)
VH: B2 VH with S27F
VL: B2 VL with P11L, T94A
B8: KW7.3.7 (antibody, V domains shown)
VH: B2 VH with S27F, T50A, I51T, V64A, R76K, L101Y, I102L, S104D, G105A, Q111R
VL: B2 VL with P11L, R24W, K39E, L55Q

These binders were tested against T1, Human Clec7A (assay: flow, Jurkat, 100 nM Ab).

| Binder | MFI normalized to WT |
| --- | --- |
| B1 | 1.16 |
| B2 | 1.25 |
| B3 | 1.11 |
| B4 | 1.36 |
| B5 | 1.46 |
| B6 | 1.03 |
| B7 | 1.38 |
| B8 | 1.18 |

The binders below were run against T2, Human KLRF1 (assay: flow, Jurkat, 100 nM Ab).

| Binder | MFI normalized to WT |
| --- | --- |
| B1 | 0.91 |
| B2 | 1.14 |
| B3 | 1.18 |
| B4 | 1.14 |
| B5 | 1.18 |
| B6 | 0.8 |
| B7 | 1.02 |
| B8 | 1.19 |

The binders below were run against T9, human CD161 (human, UniProt Q12918 1-225) (assay: flow, Jurkat, 100 nM Ab).
T9 construct: UniProt Q12918; also called hCD161; KLRB1

| Binder | MFI normalized to WT |
| --- | --- |
| B1 | 143 |
| B2 | 172 |
| B3 | 122 |
| B4 | 166 |
| B5 | 145 |
| B6 | 150 |
| B7 | 163 |

These binders were tested against T3, Human Clec5A (assay: flow, Jurkat, 100 nM Ab).

| Binder | MFI normalized to WT |
| --- | --- |
| B1 | 1.12 |
| B2 | 1.13 |
| B3 | 1.41 |
| B4 | 1.31 |
| B5 | 1.24 |
| B6 | 0.93 |
| B7 | 1.19 |
| B8 | 1.08 |

Each binder was assayed against T4, Human CD209 (assay: flow, Jurkat, 100 nM Ab).

| Binder | MFI normalized to WT |
| --- | --- |
| B1 | 0.94 |
| B2 | 0.96 |
| B3 | 1.48 |
| B4 | 0.97 |
| B5 | 1 |
| B6 | 0.81 |
| B7 | 0.91 |
| B8 | 0.85 |

What follows are binders tested against T10, Human OLR1 (human, UniProt P78380 1-273) (assay: flow, Jurkat, 100 nM Ab).
T10 construct: also called hOLR1

| Binder | MFI normalized to WT |
| --- | --- |
| B1 | 1.03 |
| B2 | 1.28 |
| B3 | 1.33 |
| B4 | 1.3 |
| B5 | 1.42 |
| B6 | 0.9 |
| B7 | 1.24 |
| B8 | 1.15 |

What follows are binders tested against T11, Human Clec9A (human, UniProt Q6UXN8 1-241) (assay: flow, Jurkat, 100 nM Ab).
T11 construct: also called hClec9A
T11 sequence (Q6UXN8 whole entry): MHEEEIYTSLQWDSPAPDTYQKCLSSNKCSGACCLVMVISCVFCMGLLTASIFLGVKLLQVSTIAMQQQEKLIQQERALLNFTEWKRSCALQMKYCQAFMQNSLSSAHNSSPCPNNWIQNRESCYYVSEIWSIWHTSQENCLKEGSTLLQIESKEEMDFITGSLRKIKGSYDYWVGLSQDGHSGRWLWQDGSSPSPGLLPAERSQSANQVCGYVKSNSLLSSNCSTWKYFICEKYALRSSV

| Binder | MFI normalized to WT |
| --- | --- |
| B1 | 1.13 |
| B2 | 1.24 |
| B3 | 1.42 |
| B4 | 1.17 |
| B5 | 1.42 |
| B6 | 0.94 |
| B7 | 1.11 |
| B8 | 1.01 |

These binders were tested against T5, Human Clec12B (assay: flow, Jurkat, 100 nM Ab).

| Binder | MFI normalized to WT |
| --- | --- |
| B1 | 1.09 |
| B2 | 1.11 |
| B3 | 1.33 |
| B4 | 1.12 |
| B5 | 1.37 |
| B6 | 0.94 |
| B7 | 1.1 |
| B8 | 1.05 |

What follows are binders tested against T6, Human Clec10A (assay: flow, Jurkat, 100 nM Ab).

| Binder | MFI normalized to WT |
| --- | --- |
| B1 | 0.98 |
| B2 | 0.94 |
| B3 | 1.44 |
| B4 | 1.01 |
| B5 | 0.9 |
| B6 | 0.86 |
| B7 | 0.9 |
| B8 | 0.89 |

Target: T7, cynomolgus CD161
Test: flow, Jurkat, 100 nM Ab

| Binder | MFI normalized to WT |
| --- | --- |
| B1 | 1.03 |
| B2 | 103 |
| B3 | 11.9 |
| B4 | 116 |
| B5 | 108 |
| B6 | 0.89 |
| B7 | 117 |

These binders were tested against T8, Human Clec4E (assay: flow, Jurkat, 100 nM Ab).

| Binder | MFI normalized to WT |
| --- | --- |
| B1 | 0.97 |
| B2 | 0.99 |
| B3 | 1.68 |
| B4 | 1.01 |
| B5 | 1.1 |
| B6 | 0.85 |
| B7 | 1.17 |
| B8 | 0.88 |
